Molecular target: 轮状病毒重组蛋白VP8 (recombinant rotavirus VP8, part of the spike protein VP4) (轮状病毒 (rotavirus; strain not stated))
Assay: ELISA, antigen coated at 10 μg/mL, Rot1 in 2-fold dilutions from 10 μg/mL (16 points), anti-His detection, OD450

B1: 纳米抗体Rot1 (nanobody Rot1, fusion protein with C-terminal histidine tag and human influenza hemaggluti (VHH)
VHH: QVQLQESGGGLVQAGGSLRLSCTASGYRFSNLAVGWFRQAPGQEREAVAVIFVGGITYYADSVKGRFTISRDNAKNTVTLQMNNLKPEDTAIYYCAAYVHMYCASQTITRYDYWGQGTQVTVSS
EC50: 0.195 µg/mL
